Drawing on patent US20200095340A1, this text covers Kd for 21 molecules.

B1: anti-DLL3 trispecific protein, DLL3 binder 4A01 (protein, part only; not given: CD3 binder and albumin binder, part only)
chain, part: EVQLVESGGGLVQPGGSLTLSCAASGSSVRFLSMAWYRQAPGKKRELVAGISQDGSTDYIDSVKGRFTISRDNAKNSVYLQMNSLRAEDTAVYYCYAYRWRTRYTYWGQGTLVTVSSGGGGSGGGSGGGGSGGGSHHHHHH
B2: anti-DLL3 trispecific protein, DLL3 binder 4E07 (protein, part only; not given: CD3 binder and albumin binder, part only)
chain, part: EVQLVESGGGLVQPGGSLTLSCAASGSRVSFLSMAWYRQAPGKKRELVAGISADGSTMYIDSVKGRFTISRDNAKNSVYLQMNSLRAEDTAVYYCYAYRWTTRLTYWGQGTLVTVSSGGGGSGGGSGGGGSGGGSHHHHHH
B3: anti-DLL3 trispecific protein, DLL3 binder 4B08 (protein, part only; not given: CD3 fragment and albumin sdAb, part only)
chain, part: EVQLVESGGGLVQPGGSLTLSCAASGSSVSFMSMAWYRQAPGKKRELVAGISADGSTDYIASVKGRFTISRDNAKNSVYLQMNSLRAEDTAVYYCYAYRWTTRSTYWGQGTLVTVSSGGGGSGGGSGGGGSGGGSHHHHHH
B4: anti-DLL3 trispecific protein, DLL3 binder 4E01 (protein, part only; not given: anti-CD3 fragment and anti-albumin sdAb, part only)
chain, part: EVQLVESGGGLVQPGGSLTLSCAASGSSVSFLSVAWYRQAPGKKRELVAGISRDGSTDYIDSVKGRFTISRDNAKNSVYLQMNSLRAEDTAVYYCYAYRWRTRYTYWGQGTLVTVSSGGGGSGGGSGGGGSGGGSHHHHHH
B5: anti-DLL3 trispecific protein, DLL3 binder 3C06 (protein, part only; not given: CD3 binder and albumin binder, part only)
chain, part: EVQLVESGGGLVQPGGSLTLSCAASGTSVSFLSIAWYRQAPGKKRELVAGISADGSTDYIASVKGRFTISRDNAKNSVYLQMNSLRAEDTAVYYCYAYRWRTRYTYWGQGTLVTVSSGGGGSGGGSGGGGSGGGSHHHHHH
B6: anti-DLL3 trispecific protein, DLL3 binder 4E06 (protein, part only; not given: anti-CD3 fragment and anti-albumin domain, part only)
chain, part: EVQLVESGGGLVQPGGSLTLSCAASGTSVSFLSMAWYRQAPGKKRELVAGISADGSTDYIRSVKGRFTISRDNAKNSVYLQMNSLRAEDTAVYYCYAYRWTTRLTYWGQGTLVTVSSGGGGSGGGSGGGGSGGGSHHHHHH
B7: anti-DLL3 trispecific protein, DLL3 binder 3E011 (protein, part only; not given: CD3 binder and albumin binder, part only)
chain, part: EVQLVESGGGLVQPGGSLTLSCAASGSKVSFLSMAWYRQAPGKKRELVAGISRDGSTDYIDSVKGRFTISRDNAKNSVYLQMNSLRAEDTAVYYCYAYRWTTRYTFWGQGTLVTVSSGGGGSGGGSGGGGSGGGSHHHHHH
B8: anti-DLL3 trispecific protein, DLL3 binder 3E09 (protein, part only; not given: CD3 binder and albumin binder, part only)
chain, part: EVQLVESGGGLVQPGGSLTLSCAASGSSVRFLSMAWYRQAPGKKRELVAGISRDGSTDYIDSVKGRFTISRDNAKNSVYLQMNSLRAEDTAVYYCYAYRWSTRYTYWGQGTLVTVSSGGGGSGGGSGGGGSGGGSHHHHHH
B9: anti-DLL3 trispecific protein, DLL3 binder 4B01 (protein, part only; not given: anti-CD3 and anti-albumin domains, part only)
chain, part: EVQLVESGGGLVQPGGSLTLSCAASGSSVKFLSMAWYRQAPGKKRELVAGISRDGSTDYIDSVKGRFTISRDNAKNSVYLQMNSLRAEDTAVYYCYAYRWTTRFTYWGQGTLVTVSSGGGGSGGGSGGGGSGGGSHHHHHH
B10: anti-DLL3 trispecific protein, DLL3 binder 3D03 (protein, part only; not given: anti-CD3 fragment and anti-albumin sdAb, part only)
chain, part: EVQLVESGGGLVQPGGSLTLSCAASGSSVVFLSMAWYRQAPGKKRELVAGISADGSMDYIDSVKGRFTISRDNAKNSVYLQMNSLRAEDTAVYYCYAYRWRTRYTYWGQGTLVTVSSGGGGSGGGSGGGGSGGGSHHHHHH
B11: anti-DLL3 trispecific protein, DLL3 binder 2B01 (protein, part only; not given: CD3 fragment and albumin sdAb, part only)
chain, part: EVQLVESGGGLVQPGGSLTLSCVASGSTSLINAMGWYRRAPGKQRELVAGISSDGSKVYADSVKGRFTISRDNAKNSVYLQMNSLRAEDTAVYYCYYFRHVSGSSMRYWGQGTLVTVSSGGGGSGGGSGGGGSGGGSHHHHHH
B12: anti-DLL3 trispecific protein, DLL3 binder 2A09 (protein, part only; not given: anti-CD3 and anti-albumin domains, part only)
chain, part: EVQLVESGGGLVQPGGSLTLSCVASGSTSSRNAMGWYRRAPGKQRELVAGISSNGSKVYSDSVKGRFTISRDNAKNSVYLQMNSLRAEDTAVYYCYYFRTVSGSSMSYWGQGTLVTVSSGGGGSGGGSGGGGSGGGSHHHHHH
B13: anti-DLL3 trispecific protein, DLL3 binder 1G04 (protein, part only; not given: anti-CD3 fragment and anti-albumin sdAb, part only)
chain, part: EVQLVESGGGLVQPGGSLTLSCVASGSTSSTNAMGWYRRAPGKQRELVAGISSDGSKVLADSVKGRFTISRDNAKNSVYLQMNSLRAEDTAVYYCYYFRTVNLSSMRYWGQGTLVTVSSGGGGSGGGSGGGGSGGGSHHHHHH
B14: anti-DLL3 trispecific protein, DLL3 binder 2F06 (protein, part only; not given: CD3 fragment and albumin sdAb, part only)
chain, part: EVQLVESGGGLVQPGGSLTLSCVASGSTSSINAYGWYRRAPGKQRELVAGISSDGSAVYADSVKGRFTISRDNAKNSVYLQMNSLRAEDTAVYYCYYFRTHSGSSMRYWGQGTLVTVSSGGGGSGGGSGGGGSGGGSHHHHHH
B15: anti-DLL3 trispecific protein, DLL3 binder 2G04 (protein, part only; not given: anti-CD3 fragment and anti-albumin sdAb, part only)
chain, part: EVQLVESGGGLVQPGGSLTLSCVASGSTSSINAMGWYRRAPGKQRELVAGISSDGSLVYADSVKGRFTISRDNAKNSVYLQMNSLRAEDTAVYYCYYFRILSGSSMRYWGQGTLVTVSSGGGGSGGGSGGGGSGGGSHHHHHH
B16: anti-DLL3 trispecific protein, DLL3 binder 1H02 (protein, part only; not given: anti-CD3 fragment and anti-albumin domain, part only)
chain, part: EVQLVESGGGLVQPGGSLTLSCVASGSKSSINAMGWYRRAPGKQRELAAGISSDGSKVYAQSVKGRFTISRDNAKNSVYLQMNSLRAEDTAVYYCYYFRTSSGSSMRYWGQGTLVTVSSGGGGSGGGSGGGGSGGGSHHHHHH
B17: anti-DLL3 trispecific protein, DLL3 binder 2E06 (protein, part only; not given: CD3 binder and albumin binder, part only)
chain, part: EVQLVESGGGLVQPGGSLTLSCVASGSTSSINAMGWYRRAPGKQRELVAGISSDGSKVYASSVKGRFTISRDNAKNSVYLQMNSLRAEDTAVYYCYYFRTVRGSSMRYWGQGTLVTVSSGGGGSGGGSGGGGSGGGSHHHHHH
B18: anti-DLL3 trispecific protein, DLL3 binder 1F04 (protein, part only; not given: anti-CD3 and anti-albumin domains, part only)
chain, part: EVQLVESGGGLVQPGGSLTLSCVASGGTSSINAMGWYRRAPGKQRELVAGISSDGSKVYSDSVKGRFTISRDNAKNSVYLQMNSLRAEDTAVYYCYYFRTVSGSSARYWGQGTLVTVSSGGGGSGGGSGGGGSGGGSHHHHHH
B19: anti-DLL3 trispecific protein, DLL3 binder 1B02 (protein, part only; not given: anti-CD3 fragment and anti-albumin sdAb, part only)
chain, part: EVQLVESGGGLVQPGGSLTLSCVASGSTSSINAMGWYRRAPGKQRELVAGISSDGSKIYADSVKGRFTISRDNAKNSVYLQMNSLRAEDTAVYYCYYFRTVSGSSMRYWGQGTLVTVSSGGGGSGGGSGGGGSGGGSHHHHHH
B20: anti-DLL3 trispecific protein, DLL3 binder 1B04 (protein, part only; not given: CD3 fragment and albumin sdAb, part only)
chain, part: EVQLVESGGGLVQPGGSLTLSCVASGTTSSINAMGWYRRAPGKQRELVAGISSDGSLVYADSVKGRFTISRDNAKNSVYLQMNSLRAEDTAVYYCYYFRIVRGSSMRYWGQGTLVTVSSGGGGSGGGSGGGGSGGGSHHHHHH
B21: anti-DLL3 trispecific protein, DLL3 binder 1G09 (protein, part only; not given: anti-CD3 fragment and anti-albumin domain, part only)
chain, part: EVQLVESGGGLVQPGGSLTLSCVASGSTSSINAMGWYRRAPGKQRELVAGISSDGSKVYADSVKGRFTISRDNAKNSVYLQMNSLRAEDTAVYYCYYFRTVSKSSMRYWGQGTLVTVSSGGGGSGGGSGGGGSGGGSHHHHHH

Chain of biotinylated human DLL3 protein expressed as a human IgG1 fusion protein (human) (Q9NYJ7 27-492): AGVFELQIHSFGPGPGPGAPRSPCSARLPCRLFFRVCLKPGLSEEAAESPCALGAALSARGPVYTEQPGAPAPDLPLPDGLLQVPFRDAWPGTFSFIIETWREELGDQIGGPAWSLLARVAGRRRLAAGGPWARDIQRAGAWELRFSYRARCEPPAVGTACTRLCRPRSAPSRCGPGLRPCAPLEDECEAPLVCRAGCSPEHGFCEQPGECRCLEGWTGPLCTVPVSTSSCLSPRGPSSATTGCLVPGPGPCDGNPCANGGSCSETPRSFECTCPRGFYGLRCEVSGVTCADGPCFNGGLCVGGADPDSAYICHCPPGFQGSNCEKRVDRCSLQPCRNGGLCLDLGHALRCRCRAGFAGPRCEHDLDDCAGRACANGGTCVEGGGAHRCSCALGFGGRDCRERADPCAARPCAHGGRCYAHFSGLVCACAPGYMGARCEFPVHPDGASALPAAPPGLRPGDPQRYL

This experiment addresses biotinylated human DLL3 protein expressed as a human IgG1 fusion protein (human) (UniProt Q9NYJ7). Nature of the experiment: Octet, biotinylated human DLL3-IgG1 fusion on streptavidin tips, single 50 nM, conditioned medium (relative KD). (In general: In BLI a coated tip is dipped into the sample, and binding shifts an interference pattern.)
In general, Kd refers to the concentration at which binding is half-saturated. For the molecule B1, the Kd came to 10 nM. That is a double-digit nanomolar value.
For the molecule B2, the equilibrium dissociation constant (Kd) was found to be 11 nM.
B3 had a dissociation constant (Kd) of 10 nM.
The value for B4 was 11 nM.
Molecule B5 gave a Kd of 10 nM.
The value for B6 was 10 nM.
As to B7, the Kd came out at 11 nM. This Kd and that of the molecule before are within 1.5-fold of each other.
Turning to B8, the Kd came to 10 nM.
To B9 belongs 11 nM; to B10, 11 nM.
To B11 belongs 10 nM; to B12, 10 nM.
B13 gave a Kd of 11 nM.
The value for B14 was 10 nM; that for B15 was 11 nM.
To B16 belongs 10 nM; to B17, 11 nM; to B18, 10 nM.
To B19 belongs 11 nM; to B20, 11 nM; to B21, 10 nM.
